Measured values taken from patent US20230235013A1 (MABSOLVE, published 2023).
Where a chain is given by its changes, count along the chain named. Names and notes keep the numbering of the source.

T1: mouse FcRn (Sino Biological Cat. No. CT029-M08H) (mouse, UniProt Q61559 22-297; P01887 21-119)
T1 construct: Bought protein, captured on an anti-histidine chip
T1 sequence (looked up): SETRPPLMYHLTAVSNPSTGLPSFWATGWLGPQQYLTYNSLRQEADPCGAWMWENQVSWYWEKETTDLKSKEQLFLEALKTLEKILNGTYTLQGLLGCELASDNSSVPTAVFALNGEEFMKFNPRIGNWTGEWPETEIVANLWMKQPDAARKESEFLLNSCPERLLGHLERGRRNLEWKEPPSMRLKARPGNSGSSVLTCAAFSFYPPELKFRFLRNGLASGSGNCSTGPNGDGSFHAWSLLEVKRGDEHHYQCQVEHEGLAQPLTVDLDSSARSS
T1 sequence (b2m, looked up): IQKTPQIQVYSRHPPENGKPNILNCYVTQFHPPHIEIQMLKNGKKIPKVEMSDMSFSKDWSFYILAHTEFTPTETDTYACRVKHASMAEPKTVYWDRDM

B1: anti-CD20 (rituximab) human IgG1 L234A/L235A (LALA) (antibody)
heavy: not shown
light: QIVLSQSPAILSASPGEKVTMTCRASSSVSYIHWFQQKPGSSPKPWIYATSNLASGVPVRFSGSGSGTSYSLTISRVEAEDAATYYCQQWTSNPPTFGGGTKLEIKRTVAAPSVFIFPPSDEQLKSGTASVVCLLNNFYPREAKVQWKVDNALQSGNSQESVTEQDSKDSTYSLSSTLTLSKADYEKHKVYACEVTHQGLSSPVTKSFNRGEC
notes: EU numbering; also called 2-65; 10.16; copies: 2 + 2
B2: anti-CD20 (rituximab) human IgG1 L234A/L235A/P329G (LALAPG reference) (antibody)
heavy: not shown
light: B1 light
notes: EU numbering; also called 2-66; copies: 2 + 2
B3: anti-CD20 (rituximab) human IgG1 L234A/L235S/G236R (antibody)
heavy: not shown
light: B1 light
notes: EU numbering; also called 2-4; 1-14; copies: 2 + 2
B4: anti-CD20 (rituximab) human IgG1 L234G/L235S/G236R (antibody)
heavy: QVQLQQPGAELVKPGASVKMSCKASGYTFTSYNMHWVKQTPGRGLEWIGAIYPGNGDTSYNQKFKGKATLTADKSSSTAYMQLSSLTSEDSAVYYCARSTYYGGDWYFNVWGAGTTVTVSSASTKGPSVFPLAPSSKSTSGGTAALGCLVKDYFPEPVTVSWNSGALTSGVHTFPAVLQSSGLYSLSSVVTVPSSSLGTQTYICNVNHKPSNTKVDKKVEPKSCDKTHTCPPCPAPEGSRGPSVFLFPPKPKDTLMISRTPEVTCVVVDVSHEDPEVKFNWYVDGVEVHNAKTKPREEQYNSTYRVVSVLTVLHQDWLNGKEYKCKVSNKALPAPIEKTISKAKGQPREPQVYTLPPSRDELTKNQVSLTCLVKGFYPSDIAVEWESNGQPENNYKTTPPVLDSDGSFFLYSKLTVDKSRWQQGNVFSCSVMHEALHNHYTQKSLSLSPGK
light: B1 light
notes: EU numbering; also called 2-19; 1-59; copies: 2 + 2
B5: anti-CD20 (rituximab) human IgG1 L234Q/L235S/G236R (antibody)
heavy: B4 heavy with G238Q
light: B1 light
notes: EU numbering; also called 2-33; 10.77; copies: 2 + 2
B6: anti-CD20 (rituximab) human IgG1 L234S/L235G/G236R (antibody)
heavy: B4 heavy with G238S, S239G
light: B1 light
notes: EU numbering; also called 2-47; 1-140; copies: 2 + 2
B7: anti-CD20 (rituximab) human IgG1 L234S/L235T/G236R (antibody)
heavy: B4 heavy with G238S, S239T
light: B1 light
notes: EU numbering; also called 2-52; 1-150; copies: 2 + 2
B8: anti-CD20 (rituximab) human IgG1 L234T/L235T/G236R (antibody)
heavy: B4 heavy with G238T, S239T
light: B1 light
notes: EU numbering; also called 2-63; 1-165; copies: 2 + 2
B9: anti-CD20 (rituximab) human IgG1 N297Q (aglycosyl) (antibody)
heavy: not shown
light: B1 light
notes: EU numbering; also called 2-67; copies: 2 + 2
B10: anti-CD20 (rituximab) human IgG1 L234T/L235S/G236R (antibody)
heavy: B4 heavy with G238T
light: B1 light
notes: EU numbering; also called 2-62; copies: 2 + 2

Target: T2, human FcRn (R&D Systems Cat. No. 8639-Fc) (human, UniProt P55899 24-297; P61769 21-119)
Test: SPR, FcRn captured; Mean

| Binder | Corrected and normalised response (% of wild-type reference) |
| --- | --- |
| B1 | 93.3 % of wild-type reference |
| B2 | 95.1 % of wild-type reference |
| B3 | 96 % of wild-type reference |
| B4 | 96.3 % of wild-type reference |
| B5 | 98.1 % of wild-type reference |
| B6 | 100 % of wild-type reference |
| B7 | 96.6 % of wild-type reference |
| B8 | 93 % of wild-type reference |
| B9 | 77.9 % of wild-type reference |

Target: T2, human FcRn (R&D Systems Cat. No. …)
Test: SPR, FcRn captured; Expt 1

| Binder | Corrected and normalised response (% of wild-type reference) |
| --- | --- |
| B1 | 92.8 % of wild-type reference |
| B2 | 95.1 % of wild-type reference |
| B3 | 96.5 % of wild-type reference |
| B4 | 97.1 % of wild-type reference |
| B5 | 98.4 % of wild-type reference |
| B6 | 100 % of wild-type reference |
| B7 | 98.3 % of wild-type reference |
| B8 | 96 % of wild-type reference |
| B9 | 78.4 % of wild-type reference |

Target: T2, human FcRn (R&D Systems Cat. No. …)
Test: SPR, FcRn captured; Expt 2

| Binder | Corrected and normalised response (% of wild-type reference) |
| --- | --- |
| B1 | 94.2 % of wild-type reference |
| B2 | 96.4 % of wild-type reference |
| B3 | 95.7 % of wild-type reference |
| B4 | 96 % of wild-type reference |
| B5 | 97.8 % of wild-type reference |
| B6 | 101 % of wild-type reference |
| B7 | 97.9 % of wild-type reference |
| B8 | 95.1 % of wild-type reference |
| B9 | 78.7 % of wild-type reference |

Target: T2, human FcRn (R&D Systems Cat. No. …)
Test: SPR, FcRn captured; Expt 3

| Binder | Corrected and normalised response (% of wild-type reference) |
| --- | --- |
| B1 | 92.9 % of wild-type reference |
| B2 | 93.6 % of wild-type reference |
| B3 | 95.8 % of wild-type reference |
| B4 | 95.7 % of wild-type reference |
| B5 | 98.2 % of wild-type reference |
| B6 | 100 % of wild-type reference |
| B7 | 93.7 % of wild-type reference |
| B8 | 88.1 % of wild-type reference |
| B9 | 76.6 % of wild-type reference |

Target: T2, human FcRn (R&D Systems Cat. No. …)
Test: SPR, FcRn captured via anti-His, pH 6.0;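 also: SPR binding signal relative to the reference cell, corrected by subtracting the response of a blank sample of running buffer alone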

| Binder | Corrected response (RU) |
| --- | --- |
| B1 | 505 RU |
| B3 | 539 RU |
| B5 | 535 RU |
| B9 | 421 RU |

Target: T3, cynomolgus monkey FcRn (Sino Biological Cat. No. CT031-C08H) (cynomolgus monkey, UniProt Q8SPV9 24-297; Q8SPW0 21-119)
T3 construct: Bought protein, captured on an anti-histidine chip; also called cynomolgus FcRn
Test: SPR, FcRn captured via anti-His, pH 6.0;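 also: SPR binding signal relative to the reference cell, corrected by subtracting the response of a blank sample of running buffer alone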

| Binder | Corrected response (RU) |
| --- | --- |
| B1 | 1180 RU |
| B3 | 1260 RU |
| B5 | 1230 RU |
| B9 | 1010 RU |

Target: T1, mouse FcRn (Sino Biological Cat. No. …)
Test: SPR, FcRn captured via anti-His, pH 6.0;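 also: SPR binding signal relative to the reference cell, corrected by subtracting the response of a blank sample of running buffer alone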

| Binder | Corrected response (RU) |
| --- | --- |
| B1 | 190 RU |
| B3 | 146 RU |
| B5 | 166 RU |
| B9 | 163 RU |

Target: T4, Human C1q (Sigma Cat. No. 20476), HRP-labelled (human, UniProt P02745 23-245; P02746 28-253; P02747 29-245)
T4 construct: Coupled to horse-radish peroxidase with Lightning-Link kit; also called HRP-labelled C1q
Test: ELISA, antibody coated, HRP-C1q; Expt 1, buffer alone 0.061

| Binder | Mean Absorbance |
| --- | --- |
| B3 | 0.041 absorbance (450 nm) |
| B4 | 0.052 absorbance (450 nm) |
| B5 | 0.026 absorbance (450 nm) |
| B7 | 0.047 absorbance (450 nm) |
| B10 | 0.037 absorbance (450 nm) |
| B8 | 0.068 absorbance (450 nm) |

Target: T4, Human C1q (Sigma Cat. No. 20476), …
Test: ELISA, antibody coated, HRP-C1q; Expt 2, buffer alone 0.091

| Binder | Mean Absorbance |
| --- | --- |
| B1 | 0.078 absorbance (450 nm) |
| B2 | 0.08 absorbance (450 nm) |
| B3 | 0.1 absorbance (450 nm) |
| B4 | 0.091 absorbance (450 nm) |
| B5 | 0.084 absorbance (450 nm) |
| B6 | 0.074 absorbance (450 nm) |
| B7 | 0.079 absorbance (450 nm) |
| B10 | 0.067 absorbance (450 nm) |
| B8 | 0.077 absorbance (450 nm) |
| B9 | 0.076 absorbance (450 nm) |

Target: T4, Human C1q (Sigma Cat. No. 20476), …
Test: ELISA, antibody coated, HRP-C1q; Expt 3, buffer alone 0.102

| Binder | Mean Absorbance |
| --- | --- |
| B1 | 0.08 absorbance (450 nm) |
| B2 | 0.103 absorbance (450 nm) |
| B3 | 0.095 absorbance (450 nm) |
| B4 | 0.064 absorbance (450 nm) |
| B5 | 0.083 absorbance (450 nm) |
| B6 | 0.087 absorbance (450 nm) |
| B7 | 0.083 absorbance (450 nm) |
| B10 | 0.119 absorbance (450 nm) |
| B8 | 0.095 absorbance (450 nm) |
| B9 | 0.083 absorbance (450 nm) |

Target: T5, C-terminus biotinylated human FcRn attached to Streptavidin-SmBiT (FcRn-SAv-SmBiT) (human, UniProt P55899 24-297; P61769 21-119, limits assumed, C-terminus biotinylated (AviTag), attached to Streptavidin-SmBiT)
T5 construct: Kit reagent; also called hFcRn-AviTag
Test: NanoBiT FcRn competition immunoassay, competitor Tracer-LgBiT human IgG, pH 6.0

| Binder | Mean binding activity (% of wild-type reference) |
| --- | --- |
| B1 | 70.1 % of wild-type reference |
| B2 | 96.7 % of wild-type reference |
| B4 | 77.8 % of wild-type reference |
| B7 | 98.6 % of wild-type reference |
| B8 | 150 % of wild-type reference |
| B9 | 34.1 % of wild-type reference |
